Test results taken from article PMC6152768, “Dynamic Allostery Modulates Catalytic Activity by Modifying the Hydrogen Bonding Network in the Catalytic Site of Human Pin1” (Molecules : A Journal of Synthetic Chemistry and Natural …, 2017).
Square brackets hold non-standard residues; d marks the D form. Ends that are not written are not given here. pT = C[C@@H](OP(=O)(O)O)[C@H](N)C(=O)O

Target: wild-type human Pin1 PPIase domain (human, UniProt Q13526 1-163)
Assay: ITC; 1.5 uL injections of 10 mM Cdc25C phosphor-peptide into 200 uL of 0.2 mM wild-type or S138A Pin1 PPIase domain in the cell; Microcal Auto iTC200; single-site fit with the stoichiometry fixed to n = 1; in triplicate; buffer and temperature not stated
Details: both partners purified

Chain of wild-type human Pin1 PPIase domain (Q13526 whole entry, the tested form may be a part): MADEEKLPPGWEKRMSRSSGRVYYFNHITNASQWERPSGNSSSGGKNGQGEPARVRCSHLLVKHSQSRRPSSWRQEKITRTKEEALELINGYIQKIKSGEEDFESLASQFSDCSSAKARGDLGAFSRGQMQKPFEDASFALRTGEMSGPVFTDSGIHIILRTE

- Kd: 1810 ± 290 µM
- stoichiometry N: 1 ± 0.001
B1: phosphor-peptide Cdc25C (EQPLpTPVTDL) (peptide)
peptide: EQPL[pT]PVTDL
notes: Phosphopeptide named Cdc25C; also called phosphorylated peptide Cdc25C; Cdc25C phosphor-peptide; source: bought: Funakoshi (Tokyo, Japan), used without further purification
